Starred links: 1 amine or outer side, 2 acyl side, 3 side chain; linkers in the order of their positions; H or OH if unused. Positions of bridges follow the written chain, without caps; N, C: chain ends. Non-standard residues stand in square brackets, D forms with d. Residues, ends and D or L forms follow the SMILES beside them. Groups on a side chain read outwards from the residue. *: point of attachment. PEG24 = NCCOCCOCCOCCOCCOCCOCCOCCOCCOCCOCCOCCOCCOCCOCCOCCOCCOCCOCCOCCOCCOCCOCCOCCOCCC(=O)O; Malonyl(C11H23,(CH2)10COOH) = CCCCCCCCCCCC(CCCCCCCCCCC(=O)O)(C(=O)O)C(=O)*; NGly(3-aminopropyl) = O=C(CN(CCCN[*:3])[*:1])[*:2]; pGlu = O=C1CC[C@@H](C(=O)O)N1; NHPhenethyl = c1ccc(CCN*)cc1; dNle = CCCC[C@@H](N)C(=O)O; Nle = CCCC[C@H](N)C(=O)O; Sar = CNCC(=O)O
Legend:
OT = target: T1, OT (Homo sapiens, UniProt P30559); assay: OT Calcium flux agonist assay (GPCRProfiler); format: cell-based; conditions: read-out: OT Ca^2+ Flux EC50
T1 sequence (P30559 1-389): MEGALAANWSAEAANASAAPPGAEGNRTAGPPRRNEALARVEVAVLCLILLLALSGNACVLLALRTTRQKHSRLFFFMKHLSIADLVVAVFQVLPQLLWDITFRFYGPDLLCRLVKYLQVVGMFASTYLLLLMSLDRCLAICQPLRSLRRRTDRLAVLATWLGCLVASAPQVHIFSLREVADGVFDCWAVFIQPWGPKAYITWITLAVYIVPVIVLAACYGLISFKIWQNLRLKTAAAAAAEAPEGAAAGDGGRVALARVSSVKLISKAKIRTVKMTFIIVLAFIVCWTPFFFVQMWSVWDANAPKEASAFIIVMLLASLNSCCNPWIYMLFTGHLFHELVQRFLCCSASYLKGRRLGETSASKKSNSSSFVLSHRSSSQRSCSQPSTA
Method: Supplied compounds were prepared in DMSO and ultimately prepared in the Eurofins Discovery Services GPCRProfiler® Assay Buffer to concentrations that were three-fold higher than the final assay concentration. Similarly, vehicle controls and positive controls were prepared to ensure all assays were properly controlled.
All wells were prepared using the Eurofins Discovery Services GPCRProfiler® Assay Buffer. The GPCRProfiler® Assay Buffer was a modified Hanks Balanced Salt Solution (HBSS) where HBSS was supplemented to contain 20 mM HEPES and 2.5 mM Probenecid at pH7.4.
Compound(s) supplied were plated in duplicate for each concentration assayed.
Reference agonist, oxytocin, was prepared in a similar manner to serve as assay control. The reference agonist, oxytocin, was included at Emax (the concentration where the reference agonist elicited a maximal response).
The agonist assay was conducted on a […] instrument where the test compound(s), vehicle controls, and reference agonist were added to the assay plate after a fluorescence/luminescence baseline was established. […]
All plates were subjected to appropriate baseline corrections. Once baseline corrections were processed, maximum fluorescence/luminescence values were exported and data manipulated to calculate percentage activation and percentage inhibition. […]

[1] = In vivo plasma stability of oxytocin conjugate, 3 mg/kg iv; parameters: species or system rats; conditions: 3 mg/kg intravenously; for half-life: rat, plasma, iv, male Sprague-Dawley rats, read-out: In vivo Plasma stability t½ (converted)
Method: (§1) Conjugate was dissolved in PBS (Phosphate buffered saline) to a concentration of 3 mg/ml to form Dosing solution. Dosing solution was administered intravenously to male Sprague-Dawley rats via lateral tail vein at a volume of 1 ml/kg body weight, corresponding to a dose of 3 mg/kg. Venous blood samples were acquired from a jugular vein catheter at prescribed times after dosing and immediately placed on wet ice. These samples were centrifuged at 4C, with supernatant plasma transferred to a fresh tube for analysis.
Standard curve preparation: Stock solution was prepared by dissolving peptide conjugate and peptide into two separate vials in dimethylsulfoxide to 1 mg/ml. 10 uL of each stock was mixed with 980 uL rat plasma to form a working stock of 10,000 ng/ml in plasma. This was serially diluted in plasma to form standards of 5000, 1000, 500, 100, 50, 10, 5, 1, 0.5, and 0.1 ng/ml. Sample and standard preparation: 25 uL plasma sample or standard was transferred to a clean plate. 150 uL acetonitrile containing 100 ng/ml glyburide as internal standard was added to each vial and the plate vortexed to mix the contents. The plate was centrifuged at 4000 rpm at 4 C. 125 uL supernatant was transferred to a clean plate, mixed with 150 uL water and analyzed by LC/MS.

[2] = In vivo plasma stability of APJ agonist conjugates, 1 mg/kg iv; conditions: rat, male Sprague-Dawley rats, 1 mg/kg intravenously, read-out: In vivo Plasma stability t½ (converted)
Method: as §1, with “1” for “3”
• Standard curve preparation: Stock solution was prepared by dissolving peptide conjugate in water to 1 mg/ml. 10 uL of Stock was mixed with 990 uL rat plasma to form a working stock of 10,000 ng/ml in plasma. This was serially diluted in plasma to form standards of 5000, 1000, 500, 100, 50, 10, 5 and 1 ng/ml. • Sample and standard preparation: 25 uL plasma sample or standard was transferred to a clean plate. 150 uL acetonitrile:MeOH (1:1) containing 100 ng/ml glyburide as internal standard was added to each vial and the plate vortexed to mix the contents. The plate was centrifuged at 4000 rpm at 4 C. 125 uL supernatant was transferred to a clean plate, mixed with 50 uL water and analyzed by LC/MS.

[3] = Material quality check of GDF15 proteins (clipping, methionine oxidation, deamidation); format: physicochemical
Description: The AHA-(200-308)-hGDF15 (SEQ ID NO: 7) was designed to remove the clipping site observed within the native protein as well as to remove the potential methioinine (M1) formylation site and the N-199 deamidation site.

[4] = test system: Diet-induced obese male mice (C57BL/6NTac); assay: DIO mice single 0.5 mg/kg sc dose: food intake and body weight; conditions: exp 1 / exp 2 = separate in vivo experiments
Method: (§2) All animal studies described in this document were approved by the Novartis Institutes for Biomedical Research Animal Care and Use Committee in accordance with local and federal regulations and guidelines. Diet-induced obese male mice (C57BL/6NTac) were purchased from Taconic and fed a 60% fat diet (Research Diets D12492i) from 6-weeks of age onward. Upon arrival, mice were housed one animal per cage under a 12 h:12 h reverse light-dark cycle. Animals all received a minimum of 1 week acclimation prior to any use. Mice were typically studied between 3-4 months of age. […] On the day of study, mice were placed in fresh cages, and the old food removed. Approximately 1 h later and just prior to the dark cycle, mice received a single subcutaneous dose of either vehicle (30 mM sodium acetate, pH 4) or a lipid conjugated GDF15 analog (0.5 mg/kg). After all injections are completed, the mice were reweighed and a defined amount of food returned ([…] per mouse). In surrogate animals treated as described above, plasma was collected at the indicated times, and GDF15 levels were measured by ELISA as per the manufacturer's instructions (R&D Systems Quantikine Human GDF15 Immunoassay; DGD150). The activity and half-life of the conjugates of the invention were tested in the assay described supra.

[5] = DIO mice single 0.5 mg/kg sc dose: plasma GDF15 levels by ELISA (PK); conditions: exp 1 / exp 2 = separate in vivo experiments
Method: as §2

[6] = clipping site R9/N10 (for the AHA protein: none detected)

Molecule: CC[C@H](C)[C@@H]1NC(=O)[C@H](Cc2ccc(O)cc2)NC(=O)CNC(=O)CC[C@@H](C(=O)N(C)CC(=O)N[C@@H](CC(C)C)C(=O)NCC(N)=O)NC(=O)[C@H](CC(N)=O)NC(=O)[C@H](CCC(N)=O)NC1=O (GYIQNE[Sar]LG-NH2; lactam N-6)
- EC50 (OT): 7.8 nM
- half-life [1]: 36 min

Molecule: C=CCCCCCCCCCC(CCCCCCCCCCC(=O)O)(C(=O)O)C(=O)NCCOCCOCCOCCOCCOCCOCCOCCOCCOCCOCCOCCOCCOCCOCCOCCOCCOCCOCCOCCOCCOCCOCCOCCn1nnc2c1CCC1C(CC2)[C@@H]1COC(=O)NCCCC[C@@H]1NC(=O)[C@H](Cc2c[nH]cn2)NC(=O)[C@@H](NC(=O)[C@H](CC(C)C)NC(=O)[C@H](CCCNC(=N)N)NC(=O)[C@@H]2CCCN2C(=O)[C@H](CCCNC(=N)N)NC(=O)[C@@H]2CCC(=O)N2)CSSC[C@@H](C(=O)N[C@@H](Cc2ccccc2)C(=O)O)NC(=O)[C@H](CCCC)NC(=O)[C@@H]2CCCN2C(=O)CNC1=O (stereo partly drawn) [Example 21A]
- half-life ([2]; plasma): 444 min

Molecule: CCCCCCCCCCCC(CCCCCCCCCCC(=O)O)(C(=O)O)C(=O)NCCOCCOCCOCCOCCOCCOCCOCCOCCOCCOCCOCCOCCOCCOCCOCCOCCOCCOCCOCCOCCOCCOCCOCCOCCC(=O)NCCCN(CC(=O)N[C@@H](CC(C)C)C(=O)NCC(N)=O)C(=O)[C@@H]1CCC(=O)NCC(=O)N[C@@H](Cc2ccc(O)cc2)C(=O)N[C@@H]([C@@H](C)CC)C(=O)N[C@@H](CCC(N)=O)C(=O)N[C@@H](CC(N)=O)C(=O)N1 (stereo partly drawn) [Example 26A] (GYIQNE[NGly(3-aminopropyl)]([PEG24-Malonyl(C11H23,(CH2)10COOH)])LG-NH2; lactam N-6)
- EC50 (OT): 8.4 nM
- half-life [1]: 2760 min
- increase in half-life compared to unconjugated oxytocin analog ([1]; rats): 75 fold

Molecule: CCCC[C@@H](NC(=O)[C@@H]1CCCN1C(=O)CNC(=O)[C@H](CCCCN)NC(=O)[C@@H]1CSSC[C@H](NC(=O)[C@@H]2CCCN2C(=O)[C@H](CCCNC(=N)N)NC(=O)[C@@H]2CCC(=O)N2)C(=O)N[C@@H](CC(C)C)C(=O)N[C@@H](CO)C(=O)N1)C(=O)NCCc1ccccc1 [pE-R—P—C*-L-S—C*—K-G-P-(D-Nle)-NH(Phenethyl) (disulfide C^4-C^7)] ([pGlu]RPCLSCKGP[dNle]-NHPhenethyl; disulfide 4-7)
- half-life ([2]; in vivo): 54 min

Molecule: CCCC[C@@H]1NC(=O)[C@@H]2CCCN2C(=O)CNC(=O)[C@H](CCCCN)NC(=O)[C@H](Cc2cnc[nH]2)NC(=O)[C@@H](NC(=O)[C@H](CC(C)C)NC(=O)[C@H](CCCNC(=N)N)NC(=O)[C@@H]2CCCN2C(=O)[C@H](CCCNC(=N)N)NC(=O)[C@@H]2CCC(=O)N2)CSSC[C@@H](C(=O)N[C@@H](Cc2ccccc2)C(=O)O)NC1=O [pE-R—P—R-L-C*—H—K-G-P-Nle-C*—F—OH(Disulfide C^6-C^12)] ([pGlu]RPRLCHKGP[Nle]CF-OH; disulfide 6-12)
- half-life ([2]; in vivo): 42 min

Molecule: MHHHHHH-ARN-(200-308)-hGDF15: His-tagged hGDF15 with native sequence, compared with AHA variant in material quality check
- Methionine oxidation ([3]; M1): M1: 12.0%
- N-199 deamidation ([3]; N10): N10: 50.1%
- clipping ([3]; clipping site N10/G11): N10/G11 (<1%)
- clipping [3, 6]: R9/N10 (<1%)

B1: AHA-(200-308)-hGDF15: GDF15 mutant designed to remove clipping site, methionine formylation site and N-199 deamidation site (protein)
chain: AHAGDHCPLGPGRCCRLHTVRASLEDLGWADWVLSPREVQVTMCIGACPSQFRAANMHAQIKTSLHRLKPDTVPAPCCVPASYNPMVLIQKTDTGVSLQTYDDLLAKDCHCI
modifications: GDF15 mutant, Intermediate 57 AHA-(200-308)- hGDF15
- clipping [3, 6]: None

B2: 12: GDF15 conjugate listed in Table 1 only; no example text in the patent (conjugate, UniProt Q99988 195-308, looked up)
Growth/differentiation factor …: ARARNGDHCPLGPGRCCRLHTVRASLEDLGWADWVLSPREVQVTMCIGACPSQFRAANMHAQIKTSLHRLKPDTVPAPCCVPASYNPMVLIQKTDTGVSLQTYDDLLAKDCHCI
modifications: conjugate
- Duration of action: Body weight (BW) reduction [4]: 6 to 8 days
- Duration of action: Food Intake (FI) reduction [4]: 6 to 8 days

B3: hGDF15: non-conjugated hGDF15 (protein, UniProt Q99988 195-308, looked up)
Growth/differentiation factor …: B2 Growth/differentiation factor …
- Duration of action: Body weight (BW) reduction [4]: 1 days
- Duration of action: Food Intake (FI) reduction [4]: 1 days
- PK (1/2 life) [5]: 1 h

Reference: patent US11752211B2, “Fatty acids and their use in conjugation to biomolecules” (NOVARTIS AG, priority 2014, dated 2023)
